Reference: the DeepSol protein solubility set

Test: soluble on expression in E. coli; label from the status in PepcDB or PDB records

Row | Sequence | soluble on expression in E. coli
1 | MAHHHHHHMTTLTHSRPRPLHLPLSPPHTRKNDGAAPAPAHTHPSHFLSVAITVTHTDFVTGTIMKSFFSNITSKLKTRRKPLAPCDCSDFIEAAPAQPSLTHLRGVVAARHFHGAPPPASDVENARRDFVVRSTVFDLQHRCGAGGRCTCAGAPACRFPQCFTMRPVTKGAEVLAERQVYEVEDAPTPEIRALVALAAEEKLEEVVKGIQHTVDAHLKAAARGRGLEARFIIDGSDGHEFTPATPKTGTGSIHAGANPLREDEDLREEITSLYLWRAALLVNLRRDEQAVSSLLNLAFAVEQKDRTRLYGAAAAWAVLNDMEIIYYRSLVKSCKPFDQAVHFATERPLLLARVFEATRGDDYHTDYCTHVVFSKEVTATVTRAQTAQMHGDFTEDPMRSLCLPLTMPYYRFRVDEEFWKRFYALLCMPPVPPPTQEEAKAQAIDPAAELGLTPNYILDAVGRSMMLHHLVTFADVRDKEIDTGVVVDRVKEMKLLDLQPHPSDYTPVLTTSEMHVAVTRMKELLVVVRSFEAKEQERLSGAAAAQRLQRAQSGNDAANPSAAPPAPSPIEK | not soluble
2 | MAHHHHHHMTTVPESTCAASCESQLCLLCDTPYTSWTEHSREHAHVARSVVCRFFVMPERSESIMQHLERHIALDLKEVDALTDRKVGRRRERLLAGLVHLVEKGVLRDSIPTLPFSTPARGGTDKGRGAGISGVTLGVDADLFLNRVLVGEAFLRREVLDRCARLMPSLTAMELNSVVTYLTSTRQMARIFDELSLIELLVTRSGLESAPANVNTATAAATAAGRAAESASVEPLSETAAAPLPDSDASTESPPAHQPCSSTLAASLPSPPRWSLSREDKVYIMCACLGELHRFHEQERPRSVISKAAADAIVLNVLAGHGRENLVSELVHETLQRIVDEGTVVWRQHQEDVKRRGRSSEANVAGAARISARRAPRTDSTVSEDLCYVRTAPLPSAPSPRPASQVTLDSAAAEQLVSSYLPFNDVDQLSGAETDAVKATAEAPSRSSPDRTCTTSPECISVLHTSEKDWGPLTAELRKRAEDWNRLPFVPSTPELKASKMPR | not soluble
3 | MAHHHHHHMTVYPSLFVCHGGGPLPLLRDEGHKMLVDALKSHRKLLENRFGLPKAIVVISAHYETNTPKVGGAERPSLLFDYYGFPEESYKFRYPVPGNAPLAAAIVNALTVGGFHAEMEPERLLDHGVFVPLMIMFPEANIPVVPLSVLRSGDPAEHIRMGKALRPLRSDAVMFIGSGSTMHHFAHFNREGAGRKFGDALTSILCKNEVATLPEDRLKAMERVKTMEGFTEAQPLREHEHLMPLLTLVGAANGNIAEEVASISFGRANVRNYLFTE | not soluble
4 | MAHHHHHHMVATITFKLRSSNHVGIIEVPHRVISCREIKEAIAEKLSGSPDEIDIFVSGSSDYLHPNDELPAYTVVEVVRHVGTGRPPPKREREPVGPSNLSSAMSHAAVRAGNKNGDTATPLTEEERLAQLSEAVAVETGIDEVGAWRMRQMRNRSAAMGGGGREVTFRPPPPGYICHNCGKRGHLIQHCPAAKGVRGVKLLSLPTGIPETMLVECTMDDPAAKFVTRDGRLVKRKLDNASFVGIVTTSNADGVKPDFPSEGGNNRNDSPNSEKLETPDAGGDAAAKPQFLCAWDSVIVKNAMKAPCCGALFCETCLNERVEEAISRADASEIPLLCPGCEEPLDVPDVVEATEERKLVEALRSGKRARD | not soluble
5 | MAHHHHHHMVGIKYRKNFCDKMLRRTQQRAISQYKFGQPSLTRAFGPVPRERQVAQAGKFMSTKLPNGVRVVSHDLDGAHSVVGVYVEAGPKYDPLGCPGLSHVMRYAIQTSNMDSSLFQVDRTMRSTGNAYGHGEICKRYIHWKTEGRRDMWEKPFAMIATGVVAPRFHESDLERFRDTMDNQREELRWQNPREYCVDALETVAFFKEPLASPRMVPPESNDRCNQKVLLDHWAAYFQPGNITVAAVNIPHDALLAAYTSLPYPHSAEAPHHARSRPPTLSHASESAQFYPGRQYIVYEDRAKNMGTVPDMKEEVIAALGAPTFGRDEDVKKYATALVAREVYQASIESVMPAALTTSHGVQSFYRPYSSAGLIGITIRGAPKEIAGFLDAARGCFPIKVKDDEVAAGRARAAMAFTRNHLDMVRDYCDFIATLSVTPQQLMEAIGAVSAGEVDAALRTLSAVPPAVFVTGSTFTFPKVPSLKK | not soluble
6 | MAHHHHHHMYADDLSIIVKGQSREDAIPTANMVLKKLHAWSQENGLAISPSKCEAAWFTLSTHTESDYDREGKRPLVVAGCEIPVMTMGASRTTKLLGMDLDPRLTLNVAASKQCAASSQRISQLRCIAHKEAGPSPHDLRMFVIGYGASKLRYGSELIWAVATDSAKNEMQKTYATLARIVSGVPSTVDPESALLEANMPPLHVLCLRARLSIFENTRACQMDWMRRPPPEPPPRAVFRISPLSRDELYAFVDAYTKEYGITQSSPREERFFRSSIPPWFAASAHRVTIGVELPTDHSITEEQLIREKRRVSEEALALHSHRSWILAKSGGVDVPKSAGVGILLSSLNSSEIIEKASINCGARPCSYRTESRALLLALERLIIPRIQHRHETLLVVADSQSLLAALNKGPLSQTDWTEDQIWQRLLTLTCAGWSVRLQFFTDIVEYMLTSLRISMRRRLWRLDNTRSMESHIYGIRIC | not soluble
7 | MAHHHHHHMYLCWNDTFLTSFALDTLLSKLVAEVCEKRPVSSRQVLELMREALETQKMQQWYYSETVRSFNDAVNSLSRRGFPLQMACPLYFRIPQEDGGVHELFRYGSEIAVTPNNYDHFEHMLKRYQAVVNGELSQEGYYDAVRHLLPISAHCNLLNSSYTPIINFLQECLLNPRSQWAIQSSSVWDQLGVTYAVPFAGRLFAVDPTKPVTALVSFEDANRYVEMASERCRTLSSLLTTGASLNVVRRAAAAAASPPSASSGRAAVKLAPSTIPVASSAATSEEARKWEAFEAIGLRPEVFSDMSPAEIEFWKYILRLRESPSQIHDISFHLEFGPHHMDLKENGRFIPVTRLNLNQFIEAVVAKQDEVHRYINEVALVTPTHSNASRDAGGGGEGSAGPPPPPVAASNTAAAQAMPAPQQDIKIPAQPPPRTIGSEATSPVGHAQSEAHRDNEAHLTLRDVDSTVVRSIMELRSQYQLGRLTKTELNARQLRFCLPCRDGVYNLIPNGRHIQVATGNIGIFLQYVEEEKKRVEALSGGKSEDSAARACSHAPEATTGGTGSLNVIQRDRERVYGAVEAADADAGYWTDKNVLDIWTYECTTACLLKSSMSPEEIVRQTQLQWDTNFLSRKDCPYANASEDGCVILPKDVKTYLRLLRRRLQSIRLAILDAGKCPQEPSEWDVGEWDVVNPSTPPLEFEVPASVHAIPSAPENLTMFSPTHNTGGLLAPSQSLYL | not soluble
8 | MAHHHHHHMYLHVMKVACTPDERHCENSVNPSSSSTLPSATTSSSCPVEHGVPDEESRFTRLYEAAVENESALRVGNYTRRLLFDEFCATSDATRQASQPTCRMLRQRHPALRSLSLSVEGMHSAGADRTSATQLPADSTMSAAESLQAYLSPALSAWRCASQEPFASSAQVAAAAPLPTSAVASDVRPRSPLPLHIDESDAPVDEGAHGEGLEALYMDVFDQEGPANNHEVAVNAAYTREREAADRAALLSAQQATMAGCPCGFTARGSTPSADVSLSNASSLLPEEDDISLVLQPVLGGVAQRRGRGIRVHLESEPSVTTSSSMVDASFLQAGRETTTLTCAVCELSGVVGDPHRTCIDAVELQEEDELHPCGTCGALVHSYCACPGTTADTHYCCNPCCPGGGTV | not soluble
9 | MAHHHHHHMYQGRSQQPLWTPPPNFSQVETGIYRSAYPTLASVPFLHHIGIKTIVLLSIELLPVPVVRAISEGDVVAGTTSVSDDVHAWKDNECIKWPIRIVSTADLSEWMNEYVCAKDDFAVSSVQRALDFALQPDFQPVLFTCPTGELQTSVIVGCMRRHQGWSLAAVLAECELFVNVTGGVRQSVMNFIEQWDPDEHPVREEDIAKRKRELLLRDPSLSYSVKRHRRTVTHSASDPDSEYDDPLAMGTSRLGQKGTAGNSAGMGLSLSPYKSSGFDRSTLSSTRVGGDELGLSHSSHVVIKLASWYTAAMKRRAAAAEAIVAARAKVRAPSDPLPEPHERYFGVLNPPALDERSTFTKKSIVQDLD | not soluble
10 | MAHHHHHHMYTHTHTHTHTHTCTHMYLSSTLHRVFSPLVASPPQKEVGSKSNARGGKRVWRKGLASWEPQAGTHAHAHAQTDAEGYLQRTRRKPRPPAHASSLSPPLLLGRSRMGYTRERTNRHFFVSRANAFFSRLPISRIQRALAMEAIKKGSMKPWKHTKEQIIGSPITCNFEYNPRPVRLIGTVMDAHTEETSIKGGLKVYARSEEANMMLWIPAGNPKLKYEVTAAKGSFEHYLDERSKWDEAWLTGRARMK | soluble
